Data on 1 substance can be found in patent US20050021237A1, “Method and apparatus for evaluating new chemical entities” (priority 2003, published 2005).

The nature of series [1]: Toxicology studies in primates. The class given is in vivo. Conditions: Phase I and primate toxicology data taken together. From the text:
(§1) In the absence of more accurate TI data, this value is used in the example. LY203638 is classified as a cardiovascular agent (since there are no prior data for hematologic agents and it is not antimicrobial). The limitations in acquiring appropriate data for LY203638 underscores the requirement to have unfettered access to the NCE's data in order to optimize Pharminator's predictive accuracy.

The nature of series [2]: Phase I studies (Clinical Investigator's Brochure). The class given is in vivo, humans. The note with it: from Phase I doses ranging from 12-48 μg/kg/hour (48/12).
Excerpt: as §1

For series [3] the following is noted: primates; cited from earlier work.

Turning to “Recombinant human activated protein C [LY203638]”, in series [1], the “therapeutic index (TI)” value is “approximately 4”. Besides, the “therapeutic index (TI)” value in series [2] was “at least 4”. Also, in series [3], the “dose at which toxic effects observed” value is 8 mg/m^2/hour and the no-observed-adverse-effect level is on record as 2 mg/m^2/hour.
